# Patent publication US20260193375A1 (NORMUNITY, published 2026)
# Columns and labels:
# human LY6E (R&D Systems) [1] = target: T1, human LY6E (R&D Systems) (human, UniProt Q16553 21-101, limits assumed); assay: ELISA, coated antigen, IgG1 at 10 ug/ml
# T1 construct: also called hLY6E
# T1 sequence (looked up): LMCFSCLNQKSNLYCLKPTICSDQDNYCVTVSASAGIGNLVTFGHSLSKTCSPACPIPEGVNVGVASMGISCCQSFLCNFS
# Human LY6K (R&D Systems) = target: T2, Human LY6K (R&D Systems) (human, UniProt Q17RY6 18-138, limits assumed); assay: ELISA, coated antigen, IgG1 at 10 ug/ml
# T2 construct: Bought from R&D Systems, coated on ELISA plates; also called hLY6K
# T2 sequence: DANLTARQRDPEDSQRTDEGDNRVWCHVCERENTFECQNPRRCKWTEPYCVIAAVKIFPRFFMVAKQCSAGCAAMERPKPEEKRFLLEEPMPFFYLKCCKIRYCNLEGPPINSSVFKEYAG
# rat LY6K (R&D Systems) = target: T3, rat LY6K (R&D Systems) (rat); assay: ELISA, coated antigen, IgG1 at 10 ug/ml
# T3 construct: also called rLY6K
# [2] = target: T4, cynomolgus monkey LY6K (R&D Systems) (cynomolgus monkey); assay: ELISA, coated antigen, IgG1 at 10 ug/ml
# T4 construct: also called cyLY6K
# [3] = target: T5, cell-surface anchored LY6K (human, UniProt Q17RY6 18-138); assay: IHC, paraffin sections of 293 cells overexpressing LY6K
# T5 construct: the cell is named under assay; also called LY6K on target cells
# T5 sequence: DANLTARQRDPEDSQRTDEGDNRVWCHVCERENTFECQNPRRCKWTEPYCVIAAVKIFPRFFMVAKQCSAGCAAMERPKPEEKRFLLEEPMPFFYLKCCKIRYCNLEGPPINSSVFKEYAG
# rLY6K-mFc = target: T6, rLY6K-mFc (rat); assay: SPR (Carterra LSA), mAb captured on anti-human IgG-Fc, antigen as analyte
# T6 chain: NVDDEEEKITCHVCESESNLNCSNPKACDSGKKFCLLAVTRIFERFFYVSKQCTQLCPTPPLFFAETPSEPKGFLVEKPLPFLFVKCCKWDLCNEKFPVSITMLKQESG
# cyLY6K-mFc = cyLY6K-mFc (cynomolgus monkey); assay: as above
# hLY6K-mFc = target: T7, hLY6K-mFc (human, UniProt Q17RY6 18-138); assay: as above
# T7 construct: not shown: mFc
# T7 sequence: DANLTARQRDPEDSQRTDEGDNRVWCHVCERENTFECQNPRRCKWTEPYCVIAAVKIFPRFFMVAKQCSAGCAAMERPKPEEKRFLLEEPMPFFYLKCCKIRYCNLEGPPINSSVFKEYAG
# human LY6E (R&D Systems) [4] = target: T1, human LY6E (R&D Systems); assay: ELISA, antigen coated on the plate, antibody as human IgG1, anti-human F(ab)2 HRPO
# Ly6D = target: T8, Ly6D; assay: as above
# T8 chain: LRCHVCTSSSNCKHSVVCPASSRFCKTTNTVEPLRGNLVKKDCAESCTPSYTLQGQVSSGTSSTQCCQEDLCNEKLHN
# Ly6H = target: T9, Ly6H; assay: as above
# T9 chain: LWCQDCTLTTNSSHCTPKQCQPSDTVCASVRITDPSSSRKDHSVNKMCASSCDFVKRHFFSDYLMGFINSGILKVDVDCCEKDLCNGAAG
# [5] = target: T10, recombinant human LY6K (Wuxi) (human, UniProt Q17RY6 18-138); assay: capture ELISA (MSD): antibody coated as capture at 2 µg/mL, recombinant human LY6K titrated, sulfo-tagged polyclonal anti-hLY6K (AF6648) for detection; EC50 is the LY6K concentration
# T10 construct: Limits of the construct not clearly stated; also called Human LY6K (Wuxi LY^KGLY138(1-38TR)_8His)
# T10 sequence: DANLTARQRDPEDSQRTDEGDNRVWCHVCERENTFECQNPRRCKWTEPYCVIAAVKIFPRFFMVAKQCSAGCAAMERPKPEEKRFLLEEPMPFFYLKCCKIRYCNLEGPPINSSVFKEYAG
# [6] = target: T10, recombinant human LY6K (Wuxi); assay: ELISA, LY6K coated at 2 ug/mL, HRP-labelled mAb titrated
# [7] = target: T5, cell-surface anchored LY6K; assay: flow cytometry on target cells, MFI fitted in Prism; flow cytometry, live target cells, 4 degrees C
# hLY6K-his = target: T11, hLY6K-his (human, UniProt Q17RY6 18-138, limits assumed); assay: SPR (Carterra LSA), mAb captured on anti-human IgG-Fc, antigen as analyte
# T11 construct: not shown: his tag
# T11 sequence: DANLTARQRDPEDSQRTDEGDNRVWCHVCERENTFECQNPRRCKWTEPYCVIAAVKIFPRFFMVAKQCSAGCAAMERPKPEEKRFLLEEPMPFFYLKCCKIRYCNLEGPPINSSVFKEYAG
Binder,% of maximum of commercial anti-LY6K mAb on human LY6K (human LY6E (R&D Systems) [1]) [%],% of maximum of commercial anti-LY6K mAb on human LY6K (Human LY6K (R&D Systems)) [%],% of maximum of commercial anti-LY6K mAb on human LY6K (rat LY6K (R&D Systems)) [%],% of maximum of commercial anti-LY6K mAb on human LY6K [2] [%],binding result [3],Kd (rLY6K-mFc) [nM],Kd (cyLY6K-mFc) [nM],Kd (hLY6K-mFc) [nM],binding result (human LY6E (R&D Systems) [4]),binding result (Ly6D),binding result (Ly6H),EC50 [5] [µg/mL],EC50 [6] [nM],EC50 [7] [nM],Kd (hLY6K-his) [nM],binding result (hLY6K-his),binding result (hLY6K-mFc)
"anti-LY6K antibody 3704 (antibody, V domains shown) VH: EVQLVESGGGLVQPGRSLRLSCAASGFTFDDYAMHWVRQAPGKGLEWVSGISWKIITIGYADSVKGRFTISRDNVKNSLYLQMNSLRAEDTALYYCAKDSRTGLDYWGQGTLVTVSS VL: DIQMTQSPSSLSASVGDRVTITCRASQTISSYLNWYQQKPGKAPKLLIYAASSLQSGVPSRFSGSGSGTDFTLTISSLQPEDFATYYCQQTYTAPLTFGPGTKVDIK",3.2,2.2,0.6,2,no binding (tested: 5 ug/ml),–,–,–,–,–,–,–,–,–,–,–,–
"anti-LY6K antibody 3047 (antibody, V domains shown) VH: EVQLVESGGGLVQPGGSLRLSCAASGFTFSSYSMNWVRQAPGKGLEWVSGINWNGGSTGYADSVKGRFTISRDNAKNSLYLQMNSLRAEDTALYYCARGRLFDYWGQGTLVTVSS VL: not shown",1.7,–,1.5,3,–,129,21600,2720,–,–,–,–,–,–,–,–,–
"anti-LY6K antibody 3507 (antibody, V domains shown) VH: EVQLVESGGGLVKPGGSLRLSCAASGFTFSSYSMNWVRQAPGKGLEWVSSISSSSDYIYYADSVKGRFTISRDDAKNSLYLQMNSLRAEDTAVYYCARGLEPNYYYYMDVWGKGTTVTVSS VL: EIVMTQSPGTLSVSPGERATLSCRASQSVSSSYLAWYQQKPGQAPRLLIYGASTRATGIPARFSGSGSGTEFTLTISSLQSEDFAVYYCQQYNNWPLTFGGGTKVEIK",1.7,2.6,-1.2,2.6,no binding (tested: 5 ug/ml),–,–,–,–,–,–,–,–,–,–,–,–
"anti-LY6K antibody 3724 (antibody, V domains shown) VH: QLQLQESGPGLVKPSETLSLTCTVSGGSINSKSYYWDWIRQPPGKGLEWIGNIYYSGSTYYNPSLKSRVTISVDTSKNQFSLKLSSVTATDTAVYYCARHRGVTVTTYWYFDLWGRGTLVTVSS VL: EIVLTQSPDFQSVTPKEKVTITCRASQSIGNSLHWYQQKSDQSPKLLIKYVSQSFSGVPSRFSGSGSGTDFTLTINSLEAEDAATYYCHQSSDFPHTFGQGTKLEIK",3.9,6.2,3.3,3.2,no binding (tested: 5 ug/ml),–,–,–,–,–,–,–,–,–,–,–,–
"anti-LY6K antibody 3520 (antibody, V domains shown) VH: QVQLVQSGSELKKPGASVKVSCKASGYTFTLYAMNWVRQAPGQGLEWMGWINTNTGNPTYAQGFTGRFVFSLDTSVSTAYLQISSLKAEDTAVYYCARTNWNSWGQGTMVTVSS VL: DIQMTQSPSSLSASVGDRVTITCQASQDISNYLHWFQQKPGKAPKLLIYDASNLETGVPSRFSGSGSGTDFTFTIFSLQPEDIATYYCQHYDNLPLTFGGGTKVEIK",2.8,61.2,0.7,13.6,–,–,117,0.373,no binding (tested: 10 µg/ml),no binding (tested: 10 µg/ml),no binding (tested: 10 µg/ml),0.536,2.34,3.61,31.9,–,–
"anti-LY6K antibody 3075 (antibody, V domains shown) VH: QVQLVQSGSELKRPGASVKVSCKASGYTFIRYAMNWVRQAPGQGLEWMGWINTNTGNPTYAQGFTGRFVLSVDTSVSTAYLQISSLKVEDTAVYYCGRPGISSFEYWGQGTLVTVSS VL: DIQMTQSPSSLSASVGDRVAITCRATQDISNYLDWYQQKPGKAPKLLIYDASNLETGVPSRFSGSGSGTDFTFTINSLQPEDIATYYCQQYDNLPLTFGGGTKVEIK",1.6,58.3,0.7,16.7,–,–,–,–,–,–,–,–,1.56,0.805,–,–,–
"anti-LY6K antibody 3503 (antibody, V domains shown) VH: EVQLVESGGGLVKPGGSLRLSCAASGFIFSSYSMNWVRQAPGKGLEWVSSISSSSSYIYYADSEKGRFTISRDNAKNSLYLQMNSLRAEDTAVYYCARQSTVVTSDYYYYYMDVWGKGTTVTVSS VL: DIQMTQSPSSLSASVGDRVTITCRASQSISNYLNWYQQKPGKAPNLLIYAASSLQSGVPSRFSGSGSGTDFTLTISSLQPEDFATYYCQQSYSPPITFGQGTRLEIK",2.9,66.6,0.7,76.4,–,–,0.197,0.0553,no binding (tested: 10 µg/ml),no binding (tested: 10 µg/ml),no binding (tested: 10 µg/ml),0.064,2.67,0.576,3.49,–,–
"anti-LY6K antibody 3746 (antibody, V domains shown) VH: EVQLVESGGGLVKPGGSLRLSCAASGFIFSSYSMNWVRQAPGKGLEWVSSISSSSSYIYYADSEKGRFTISRDNAKNSLYLQMNSLRAEDTAVYYCARQSTVVTSDYYYYYMDVWGKGTTVTVSS VL: DIQMTQSPSSLSASVGDRVTITCRASQSISNYLNWYQQKPGKAPNLLIYAASSLQSGVPSRFSGSGSGTDFTLTISSLQPEDFATYYCQQSYSPPITFGQGTRLEIK",1.2,76.9,3.1,78.7,–,–,0.216,0.0362,–,–,–,–,3.04,3.21,2.5,–,–
"anti-LY6K antibody 3522 (antibody, V domains shown) VH: QVQLQQSGPGLVKPSQTLSLTCAISGDSVSSNSAAWNWIRQSPSRGLEWLGRTYYRSKWYNDYAVSVKSRITINPDTSKNQFSLQLNSVTPEDTAVYYCARECSGSYYRFDPWGQGTLVTVSS VL: DIVMTQTPLSSPVTLGQPASISCRSSQSLVHSNGNTYLSWLQQRPGQPPRLLIYKISHRFSGVPDRFSGSGAGTDFTLKIRRVEAEDVGVYYCMQATQFPYTFGQGTKLEIK",4.3,2.1,0.7,2.6,no binding (tested: 5 ug/ml),–,–,–,–,–,–,–,–,–,–,no binding (tested: up to 1.266-6 M as printed),no binding (tested: up to 1.266-6 M as printed)
